Reference: paper PMC10520873, “Biochemical investigation of the tryptophan biosynthetic enzyme anthranilate phosphoribosyltransferase in plants” (The Journal of Biological Chemistry, 2023)

Legend:
Assay in all cases: purified protein
[1] = system: T1, Nc1c(O)cccc1C(=O)O; format: biochemical, Arabidopsis thaliana; settings: 1 mM PR-PPi, 45 mM imidazole HCl pH 7.4, 30 °C, 3-HAA 0-0.5 mM
T1 construct: codon-optimized gene in pET28a, His-tagged, E. coli BL21 (DE3), Ni-NTA

[2] = system: T2, Nc1ccccc1C(=O)O; format: biochemical, Arabidopsis thaliana; settings: 1 mM PR-PPi, 45 mM imidazole HCl pH 7.4, 30 °C, anthranilate 0-0.75 mM
T2 construct: codon-optimized gene in pET28a, His-tagged, E. coli BL21 (DE3), Ni-NTA

[3] = system: T1, Nc1c(O)cccc1C(=O)O; format: biochemical, Juglans regia; settings: 1 mM PR-PPi, 45 mM imidazole HCl pH 7.4, 30 °C, 3-HAA 0-0.5 mM
[4] = system: Nc1ccccc1C(=O)O; format: biochemical, Juglans regia; settings: 1 mM PR-PPi, 45 mM imidazole HCl pH 7.4, 30 °C, anthranilate 0-0.75 mM
[5] = system: Nc1ccccc1C(=O)O; format: biochemical, Physcomitrium patens; settings: 1 mM PR-PPi, 45 mM imidazole HCl pH 7.4, 30 °C, anthranilate 0-0.75 mM
[6] = system: T1, Nc1c(O)cccc1C(=O)O; format: biochemical, Selaginella moellendorffii; settings: 1 mM PR-PPi, 45 mM imidazole HCl pH 7.4, 30 °C, 3-HAA 0-0.5 mM
[7] = system: T2, Nc1ccccc1C(=O)O; format: biochemical, Selaginella moellendorffii; settings: 1 mM PR-PPi, 45 mM imidazole HCl pH 7.4, 30 °C, anthranilate 0-0.75 mM

AtPAT1 (Arabidopsis thaliana)
Km [1]: 19.63 ± 2.3 µM | kcat [1]: 0.0483 ± 0.00117 s⁻¹ | kcat/Km [1]: 2470 M⁻¹ s⁻¹ | Km [2]: 20.6 ± 2.0 µM | kcat [2]: 0.132 ± 0.00167 s⁻¹ | kcat/Km [2]: 6360 M⁻¹ s⁻¹

JrPAT1 (Juglans regia)
Km [3]: 28.23 ± 4.2 µM | kcat [3]: 0.0483 ± 0.00167 s⁻¹ | kcat/Km [3]: 1690 M⁻¹ s⁻¹ | Km [4]: 38.7 ± 3.5 µM | kcat [4]: 0.055 ± 0.00167 s⁻¹ | kcat/Km [4]: 1420 M⁻¹ s⁻¹

PpPAT1 (Physcomitrium patens)
Km [5]: 31.8 ± 4.4 µM | kcat [5]: 0.0567 ± 0.00167 s⁻¹ | kcat/Km [5]: 1790 M⁻¹ s⁻¹

SmPAT1 (Selaginella moellendorffii)
Km [6]: 22.66 ± 1.5 µM | kcat [6]: 0.0533 ± 0.000833 s⁻¹ | kcat/Km [6]: 2360 M⁻¹ s⁻¹ | Km [7]: 189 ± 35 µM | kcat [7]: 0.085 ± 0.005 s⁻¹ | kcat/Km [7]: 450 M⁻¹ s⁻¹
